Source: paper PMC4564947 (Nature structural & molecular biology, 2015)
Changes are numbered by the printed parent chain. In names and notes the source's numbering stands. Several values for one entry are separate records, joined by “and”; a condition that tells them apart may be missing. Equal entries are not always repeated.

B1: CtIP-cNTD, human CtIP residues 52-145 (domain or fragment)
chain: DAQRLEEFFTKNQQLREQQKVLHETIKVLEDRLRAGLCDRCAVTEEHMRKKQQEFENIRQQNLKLITELMNERNTLQEENKKLSEQLQQKIEND
B2: CtIP-cNTD-DM, C89A C92A double mutant of CtIP residues 52-145 (domain or fragment)
chain: B1 chain with C38A, C41A
B3: FLAG-tagged full-length wild-type CtIP purified from HEK-293T cells (natural protein)
chain: MNISGSSCGSPNSADTSSDFKDLWTKLKECHDREVQGLQVKVTKLKQERILDAQRLEEFFTKNQQLREQQKVLHETIKVLEDRLRAGLCDRCAVTEEHMRKKQQEFENIRQQNLKLITELMNERNTLQEENKKLSEQLQQKIENDQQHQAAELECEEDVIPDSPITAFSFSGVNRLRRKENPHVRYIEQTHTKLEHSVCANEMRKVSKSSTHPQHNPNENEILVADTYDQSQSPMAKAHGTSSYTPDKSSFNLATVVAETLGLGVQEESETQGPMSPLGDELYHCLEGNHKKQPFEESTRNTEDSLRFSDSTSKTPPQEELPTRVSSPVFGATSSIKSGLDLNTSLSPSLLQPGKKKHLKTLPFSNTCISRLEKTRSKSEDSALFTHHSLGSEVNKIIIQSSNKQILINKNISESLGEQNRTEYGKDSNTDKHLEPLKSLGGRTSKRKKTEEESEHEVSCPQASFDKENAFPFPMDNQFSMNGDCVMDKPLDLSDRFSAIQRQEKSQGSETSKNKFRQVTLYEALKTIPKGFSSSRKASDGNCTLPKDSPGEPCSQECIILQPLNKCSPDNKPSLQIKEENAVFKIPLRPRESLETENVLDDIKSAGSHEPIKIQTRSDHGGCELASVLQLNPCRTGKIKSLQNNQDVSFENIQWSIDPGADLSQYKMDVTVIDTKDGSQSKLGGETVDMDCTLVSETVLLKMKKQEQKGEKSSNEERKMNDSLEDMFDRTTHEEYESCLADSFSQAADEEEELSTATKKLHTHGDKQDKVKQKAFVEPYFKGDERETSLQNFPHIEVVRKKEERRKLLGHTCKECEIYYADMPAEEREKKLASCSRHRFRYIPPNTPENFWEVGFPSTQTCMERGYIKEDLDPCPRPKRRQPYNAIFSPKGKEQKT
B4: Δ20-27 CtIP-NTD, human CtIP residues 18-145 with residues 20-27 deleted (domain or fragment)
chain: SDKECHDREVQGLQVKVTKLKQERILDAQRLEEFFTKNQQLREQQKVLHETIKVLEDRLRAGLCDRCAVTEEHMRKKQQEFENIRQQNLKLITELMNERNTLQEENKKLSEQLQQKIEND
B5: CtIP N-terminal domain (CtIP-NTD), human CtIP residues 18-145 (domain or fragment)
chain: SDFKDLWTKLKECHDREVQGLQVKVTKLKQERILDAQRLEEFFTKNQQLREQQKVLHETIKVLEDRLRAGLCDRCAVTEEHMRKKQQEFENIRQQNLKLITELMNERNTLQEENKKLSEQLQQKIEND
B6: L27E CtIP-NTD, human CtIP residues 18-145 with L27E (domain or fragment)
chain: B5 chain with L10E
B7: CtIP-NTD-DM, C89A C92A double mutant of CtIP residues 18-145 (domain or fragment)
chain: B5 chain with C72A, C75A
B8: F20E CtIP-NTD, human CtIP residues 18-145 with F20E (domain or fragment)
chain: B5 chain with F3E

Experiments:
SEC-MALS = molecular target: the molecule itself; experiment: SEC-MALS
SEC = molecular target: the molecule itself; experiment: SEC

Row | Protein | stoichiometry N (SEC-MALS) | binding result (SEC)
1 | B1 | 2 | 
2 | B2 | 2 | 
3 | B3 |  | binds
4 | B4 | 2 | 
5 | B5 | 4 | 
6 | B6 | 2 | 
7 | B7 | 4 | 
8 | B8 | 2 and 4 | 
9 | SDFKDLWTKLKECHDREVQGLQVKVTKLKQERILD (domain or fragment) [CtIP-nNTD, tetramerization domain of human CtIP, residues 18-52] | 4 | 
10 | SDFKDLWTKLKECHDREVQGLQVKVTKLKQERILD (domain or fragment) [CtIP-nNTD (residues 18-52) fused to a maltose-binding protein (MBP) tag] | 4 | 
